To fix the notation:
B1: CPEB3 Ribozyme (parent)
chain: GGGGGCCACAGCAGAAGCGUUCACGUCGCGGCCCCUGUCAGAUUCUGGUGAAUCUGCGAAUUCUGCUGU

The variants in this data set derive from B1. Kind of data set: self-cleavage, relative activity (ratio to wild type); higher = more cleavage; co-transcriptional.
In the case of GGGGGGCACAGCAGAAGCGUUCACGUCGCGGCCCCUGUCAGAUUCUGGUGAAUGUGCGAAUUCUGCUGU [C6G C54G], the self-cleavage stood at 0.0918.

For the variant GGGGGGCACAGCAGAAGCGUUCACGUCGCGGCCCCUGUCAGAUUCUGGUGAAUUUGCGAAUUCUGCUGU [C6G C54U], the self-cleavage stood at 0.398.

As for GGGGGGCACAGCAGAAGCGUUCACGUCGCGGCGCCUGUCAGAUUCUGGUGAAUCUGCGAAUUCUGCUGU [C6G C33G], the self-cleavage amounted to 0.0662.

On to GGGGGGCACAGCAGAAGCGUUCACGUCGCGGCACCUGUCAGAUUCUGGUGAAUCUGCGAAUUCUGCUGU [C6G C33A], for which the self-cleavage stood at 0.117.

On to GGGGGGCACAGCAGAAGCGUUCACGUCGCGGCUCCUGUCAGAUUCUGGUGAAUCUGCGAAUUCUGCUGU [C6G C33U], for which the self-cleavage is 0.262.

In the case of GGGGGGCACACCAGAAGCGUUCACGUCGCGGCCCCUGUCAGAUUCUGGUGAAUCUGCGAAUUCUGCUGU [C6G G11C], the self-cleavage came out at 0.17.

Take GGGGGGCACAGCAGAAGCGUUCACGUCGCGGCCCCUGUCAGAUUCUGGUAAAUCUGCGAAUUCUGCUGU [C6G G50A]: the self-cleavage worked out at 0.42.

For GGGGGGCACAGCAGAAGCGUUCACGUCGCGGCCCCUGUCAGAUUCUGGUUAAUCUGCGAAUUCUGCUGU [C6G G50U], the self-cleavage was 0.37.

Consider GGGGGGCACAGCACAAGCGUUCACGUCGCGGCCCCUGUCAGAUUCUGGUGAAUCUGCGAAUUCUGCUGU [C6G G14C], for which the self-cleavage is 0.0817.

On to GGGGGGCACAGCAAAAGCGUUCACGUCGCGGCCCCUGUCAGAUUCUGGUGAAUCUGCGAAUUCUGCUGU [C6G G14A], for which the self-cleavage turned out to be 0.0825.

GGGGGGCACAGCAGAAGCGUUCACGUCGCGGCCCCUGUCAGAUUCUGGUGAAUCUGCGGAUUCUGCUGU [C6G A59G]: the self-cleavage worked out at 0.255.

Turning to GGGGGGCACAGCAGAAGCGUUCACGUCGCGGCCCCUGUCAGAUUCUGGUGAAUCUGCGCAUUCUGCUGU [C6G A59C], the self-cleavage is 0.21.

In the case of GGGGGGCACAGCAGAAGCGUUCACGUCGCGGCCCCUGUCAGAUUCUGGUGAAUCUGAGAAUUCUGCUGU [C6G C57A], the self-cleavage was 0.0667.

On to GGGGGGCACAGCAGAAGCGUUCACGUCGCGGCCCCUGUCAGAUUCUGGUGAAUCUGUGAAUUCUGCUGU [C6G C57U], for which the self-cleavage turned out to be 0.189.

Consider GGGGGGCACAGCAGAAGCGUUCACGUCGCGGCCCCUGUCAGUUUCUGGUGAAUCUGCGAAUUCUGCUGU [C6G A42U], for which the self-cleavage worked out at 0.154.

Turning to GGGGGGCACAGCAGAAGCGUUCACGUCGCGGCCCCUGUCAGCUUCUGGUGAAUCUGCGAAUUCUGCUGU [C6G A42C], the self-cleavage is 0.257.

Consider GGGGGGCACAGCAGAAGCGUUCACGUCGCGGCCCCUGUCAGAUUCUGGUGACUCUGCGAAUUCUGCUGU [C6G A52C], for which the self-cleavage was 0.264.

As to GGGGGGCACAGCAGAAGCGUUCACGUCGCGGCCCCUGUCAGAUUCUGGUGAGUCUGCGAAUUCUGCUGU [C6G A52G], the self-cleavage was 0.343.

Take GGGGGGCACAGCAGAAGCGUUCACGUCGCGGCCCCUGUCAGAUUCUGCUGAAUCUGCGAAUUCUGCUGU [C6G G48C]: the self-cleavage amounted to 0.35.

For GGGGGGCACAGCAGAAGCGUUCACGUCGCGGCCCCUGUCAGAUUCUGUUGAAUCUGCGAAUUCUGCUGU [C6G G48U], the self-cleavage came out at 0.391.

On to GGGGGGCACAGCAGAAGCGUUCACGUCGCGGCCCCUGUCGGAUUCUGGUGAAUCUGCGAAUUCUGCUGU [C6G A40G], for which the self-cleavage worked out at 0.307.

As to GGGGGGCACAGCAGAAGCGUUCACGUCGCGGCCCCUGUCUGAUUCUGGUGAAUCUGCGAAUUCUGCUGU [C6G A40U], the self-cleavage worked out at 0.0791.

Consider GGGGGGCACAGCAGAAGCGUUCACGUCGCGGCCCCUGUCCGAUUCUGGUGAAUCUGCGAAUUCUGCUGU [C6G A40C], for which the self-cleavage worked out at 0.128.

Regarding GGGGGGCACAGCAGAAGCGUUCACGUCGCGGCCCUUGUCAGAUUCUGGUGAAUCUGCGAAUUCUGCUGU [C6G C35U], the self-cleavage amounted to 0.15.

As to GGGGGGCACAGCAGAAGCGUUCACGUCGCGGCCCAUGUCAGAUUCUGGUGAAUCUGCGAAUUCUGCUGU [C6G C35A], the self-cleavage came to 0.0719.

In the case of GGGGGGCACAGCAGAAGCGUUCACGUCGCGGCCCCUGUCAGAUUCUGGUGAAUCUGCAAAUUCUGCUGU [C6G G58A], the self-cleavage was determined as 0.2.

On to GGGGGGCACAGCAGAAGCGUUCACGUCGCGGCCCCUGUCAGAUUCUAGUGAAUCUGCGAAUUCUGCUGU [C6G G47A], for which the self-cleavage came to 0.377.

For the variant GGGGGGCACAGCAGAAGCGUUCACGUCGCGGCCCCUGUCAGAUUCUCGUGAAUCUGCGAAUUCUGCUGU [C6G G47C], the self-cleavage was 0.36.

As to GGGGGGCACAGCAGAAGCGUUCACGUCGCGGCCCCUGUCAGAUUAUGGUGAAUCUGCGAAUUCUGCUGU [C6G C45A], the self-cleavage is 0.227.

Take GGGGGGCACAGCAGAAGCGUUCACGUCGCGGCCCCUGUCAGAUUUUGGUGAAUCUGCGAAUUCUGCUGU [C6G C45U]: the self-cleavage stood at 0.362.

With GGGGGGCACAGCAGAAGCGUUCACGUAGCGGCCCCUGUCAGAUUCUGGUGAAUCUGCGAAUUCUGCUGU [C6G C27A], the self-cleavage was found to be 0.0381.

In the case of GGGGGGCACAGCAGAAGCGUUCACGUGGCGGCCCCUGUCAGAUUCUGGUGAAUCUGCGAAUUCUGCUGU [C6G C27G], the self-cleavage came out at 0.0563.

GGGGGGCACAGCAGAAGCGUUCACGUUGCGGCCCCUGUCAGAUUCUGGUGAAUCUGCGAAUUCUGCUGU [C6G C27U]: the self-cleavage amounted to 0.0872.

In the case of GGGGGGCACAGCAGAAGCGUUCACGUCGCGGGCCCUGUCAGAUUCUGGUGAAUCUGCGAAUUCUGCUGU [C6G C32G], the self-cleavage is 0.0963.

With GGGGGGCACAGCAGAAGCGUUCACGUCGCGGACCCUGUCAGAUUCUGGUGAAUCUGCGAAUUCUGCUGU [C6G C32A], the self-cleavage turned out to be 0.0685.

Take GGGGGGCACAGCAGAAGCGUUCACGUCGCGGUCCCUGUCAGAUUCUGGUGAAUCUGCGAAUUCUGCUGU [C6G C32U]: the self-cleavage was found to be 0.212.

For GGGGGGCACAGCAGAAGCGUUCACGUCGCGGCCCCUGUCAGAUUCUGGUGUAUCUGCGAAUUCUGCUGU [C6G A51U], the self-cleavage came to 0.353.

On to GGGGGGCACAGCAGAAGCGUUCACGUCGCGGCCCCUGUGAGAUUCUGGUGAAUCUGCGAAUUCUGCUGU [C6G C39G], for which the self-cleavage worked out at 0.174.

As to GGGGGGCACAGCAGAAUCGUUCACGUCGCGGCCCCUGUCAGAUUCUGGUGAAUCUGCGAAUUCUGCUGU [C6G G17U], the self-cleavage stood at 0.0809.

The record behind these values is the RNAGym collection of RNA variant scans (doi:10.7554/elife.80360).
